From the nanobody polyreactivity screen of Harvey et al. (2022) come the findings set out here.

The nature of the data set: yeast display, Sf9 membrane polyspecificity reagent, FACS + sequencing; frameworks hold sequencing errors. The gist of the method: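 A nanobody's polyreactivity label depends on the gate it was sorted from. Yeast display cells were stained with 10% biotinylated, detergent-solubilized Sf9 membrane reagent for 1 hour at 4 °C, enriched on streptavidin microbeads and sorted by FACS. The low and high (top ~1%) gates were set on anti-HA fluorescence for expression and streptavidin fluorescence for reagent binding.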
For the sequence “QVQLVESGGGLVQAGGSLRLSCAASGLTFVWYAMGWYRQAPGKERELVAAIRGGGSTYYADSVKGRFTISRDNAKNTVYLQMNSLKPEDTAVYYCAAPYARCLFYLLHYPRFSYDYWGQGTQVTVSS”, the “polyreactivity (PSR sort gate)” value was “high polyreactivity”.
The result for “QVQLVESGGGLVQAGGSLRLSCAASGFTFVRYVMGWYRQAPGKERELVAAISRSGGSTHYADSVKGRFTISRDNAKNTVYLQMNSLKPEDTAVYYCAAASPRWPGQGDYWGQGTQVTVSS” reads “high polyreactivity”; that for “QVQHVESGGGLVQAGGSLRLSCAASGFTLFWNDMGWYRQAPGKERELVAAITSGDDTYADSVKGRFTISRDNAKNTVYLQMNSLKPEDTAVYYCNKDDPLRNVAQVILYEFYYWGQGTQVTVSS”, “low polyreactivity”; that for “QLQLVESGGGLVQAGGSLRLSCAASGRTFERNAMGWYRQARGQERELVAAITWSGVSTYYADSVKGRFTISRDNAKNTVYLQMNSLKPEDTAVYYCAADWDWRFHRMNYWGQGTQVTVSS”, “low polyreactivity”.
To “QVQLVESGGGLVQEGGSLRLSCAASGSTFFTYAMGWYRQAPGKERELVAAISSSGGSTYYADSVKGRFTISRDNAKNTVYLQMNSLIPEDTAVDYCNAKLYLPYDPTDEYDYWGQGTQVTVSS” belongs “low polyreactivity”.
In the case of “QVQLVESGGGLVQAGGSLRLSCAASGSIFASYAMGWYRQAPGKERELVAAISQNGSRTYYAVSVKGRFTISRDNAKYTVYLQMNSLKPEDTAVYYCAVLSRQYFRYGYDYWGQGTQVTVSS”, the “polyreactivity (PSR sort gate)” value was “high polyreactivity”.
Regarding “QVQLVESGGGLVQAGGSLRLSCAASGFTFGYYAMGWYRQAPGKERELVAAITYSGGSTYYADSVKGRFTISRDNAKNTVYLQMNSLNPEDTAVYYCNAYARRYYYGRWYGEFDYWGQGTQVTLSS”, the “polyreactivity (PSR sort gate)” value is recorded as “low polyreactivity”.
As for “QVQLVESGGGLVQSGGSLRLSCAASGFIFGGYAMGWYRQAPGTERELVASITWSGGRTFYADSVKGRFTISRDNAKNTVYLQMNSLKPEDTEVYYCAAGIYFTPYYYYPPNPFDYWGQGTQVTVSS”, the “polyreactivity (PSR sort gate)” value is “low polyreactivity”.
With “QVQLVESGGGLVQAGGSLRLSCAASGITFKTYAMGWYRQAPGKERELVATINRGSRTNYADSVKGRFTISRDNAKNTVYLQMNSLKPEDTAVYYCAAHYTTFIPSPDGDYLGQGTQVTVSS”, the “polyreactivity (PSR sort gate)” value is “low polyreactivity”.
On to “QVQLVESGGGLVQAGGSLRLSCAASGSIFTINAMGWYRQAPGKVRELVAAISWSGAPTYYADSVKGRFTISRDNAKNTVYLQMNSLTPEDTAVYYCATGYNYLDRNTGYVHRFDYWGQGTQVTVSS”, for which the “polyreactivity (PSR sort gate)” value is “low polyreactivity”.
As to “QVQLVESGVGLVQSGGSLRLSCAASGRISAQYTMGWYRQAPGIERELFAAITWSGTNTYYADSVKGRFTISRDNAKNTVYLQFNSLKPEDTAVYYCATAVYLVIFEYDYWGQGTHVTVSS”, the “polyreactivity (PSR sort gate)” value is “low polyreactivity”.
To “QVQLVESGGGLVQAGGSLRLSCAASVFTCAVYVMGWYRQAPGKERELVANISFSVGSTYYADSVKGRFTISRDYAKNTVYLQMNSLKPEDTAVYYCNADPPPEYYPDKDNYWGQGTQVTVSS” belongs “low polyreactivity”; to “QVQLQESGGGLVQAGGSLRLSCAASGYISYFVGMGWYRQAPGKEREFVASIADGSYTYYADSVKGRFTISRDNAKNTVYLQRNSLKPEDTAVYYCAVEDSWTYRFDYWGQGTQVTVSS”, “high polyreactivity”.
To “QVQLVESGGGLVQAGGSLRLSCAASGLTFRYYAMGWYIQAPGKERELVATITATDGSTYYADSVKGRFTISRDNAKNTVYLQMNSLKPEDTAVYYRAKTYTEYSVTRSGARMDYWGQGTQVTVSS” belongs “low polyreactivity”; to “QVQLVELGGGLVQAGGSLRLSCAASGRIFTHNAMGWYRQAPGKDRELVAAISYSGVSTYYADSVKGRFTISRDNAKNTVYLQMNSLKPEDTAVYYCARRYWYPDAFYRYDYWGQGTQVTVSS”, “low polyreactivity”; to “QVQLVESGGGLVQAGGSLRLSCAASGRTFPIYAMGWYRQAPGKERELVATITWNDGNTYYADSVKGRFTISRDNAKNTVYLQMNSLKPEDTAVYYCAAKGGWPWHYHYQKNSEYDYWGQGTQVTVSS”, “low polyreactivity”.
The result for “QVQLVETGGGLVQAGGSLRLSCAASGYTLPANGKGWYRQAPGKDRELVAAISFIAGSTYYADSVNGRFTISRDNAKNTVYLQMNSLKPEDTAGYYCATQFPRSTIYDYWGQGTQVTVSS” reads “low polyreactivity”.
For “QVHLVESGGGLVHAGGSLRVSCAASGYTFHRYAMGWYRQAPGKERELVAAITRGGGSTRYADSVKGRFTISRDNAKYTVYLQMNSLKPEDTAVYYCAAERRTPGRTTYYYWGQGTQVSVSS”, the “polyreactivity (PSR sort gate)” value is on record as “high polyreactivity”.
Regarding “QVQLVESGGGLVQAGGSLRLSCAASGFIFGANAMGWYRPAPGKERELVAAITWSAGRTYYADSVKGRFTISRVNAKNTVYLKMNSLKREDSAVYYCAKQRARQSPEVGYWGQGTQVTVSS”, the “polyreactivity (PSR sort gate)” value is listed as “high polyreactivity”.
To “QVQLVESGGGLVQAGGSLRLSCAASGFIFRRYAMGWYRQAPGKERELVAAIRWDDGNTYYADSVKGRFTISRDNAKNTVYLQMNSLKPEDTAVYYCNADKWSSTDDWLYDYWGQGTQVTVSS” belongs “low polyreactivity”; to “QVQLVESGGGLVQAGGSLRLSCAASGITFYSYAMGWYRQAPGKEREFVAAINWRGGNTYYADSVKGRFTISRDNAKNTVYLQMNSLKPEDTAFYYCARDGIYAYWVDPYDYWGQGTQVTVSS”, “high polyreactivity”.
The result for “QVQLVESGGGLVQAGGSLRLSCAASGFIISRNAMGWYRQAPGKERELVAAIRTRTGSTYYADSVKGRFTISRDNAKNTVYLQMNSLKPEDTAVYYCNAYPYVNGRYGSWGQGTQVTVSS” reads “high polyreactivity”.
The result for “QVQLVESGGGLLHAGGSLRLSFAASGRIFYYNGMGWYRQAPGKERELVAAISRGGSTYYADSVKGRFTISRDNAKNTVYLQMNRLLPEDTAVYDCAAYRGGLVNYWGQGSQVTVSS” reads “high polyreactivity”.
For the sequence “QVQLVESGGGLVQAAGSLRLSCAASGSIFDPNVMGWYRQAPGKERELVATISSDGTTTYADSVKGRFTISRDNAKNTVYLQMNSLKPEDTAVYYCATEWDIDPRRSVGYPIGYGYWGQGTQVTVSS”, the “polyreactivity (PSR sort gate)” value is recorded as “low polyreactivity”.
As to “QVQLVESGGGLVQAGGSLRLSCAASGSILYIYAMGWYRQAPGKERELVAAISKNSADTYYADSVKGRFTISRDNAKNTVYLQMNSLKPEDTAVYYCAADVVKVAAYNYWGQGSQVTVSS”, the “polyreactivity (PSR sort gate)” value was “low polyreactivity”.
To “QVQLVESGGGLVQAGGSLRISCAASGATFYYYAMGWYRQAPGKERELVASTYYADSVKGRFSISRDNAKNTVYLQMKSLKPEDTAVYYCAKRFKATYEYDYWGQGTQVTVSS” belongs “low polyreactivity”.
Turning to “QVQLVESGGGLVQAGGSLRLSCAASGIIFDYYDMGWYRQAPGKERELVAAISAGGGSTYYADSVKGRFTISRDNAKNTVYLQMNSLKPEDTAVYYCAALYWRSTVGAYSTYEYDYWGQGTQVTVSS”, the “polyreactivity (PSR sort gate)” value is on record as “high polyreactivity”.
Take “QVQLVESGGGLVQAGGSLRLSCAASGSIFVSYAMGWYRQAPGKERELVAVISYSGVSTYYADSVKGRFTISRDNAKNTVYLQMNSLKPEDTAVYYCATRQYGTRHILKYNYWGQGTQVTVSS”: the “polyreactivity (PSR sort gate)” value is recorded as “low polyreactivity”.
The result for “QDQLVESGGGLVQAGGSLRLSCADSGITFSVYAMGWYRQAPGKERELVAAISWNGGRTYYADSVKGRFTISRDNAKNTVYLQMNSLKPEDTAVYYCAAQPWIFSSRLVWTRGYGYWGQGTQVTVSS” reads “high polyreactivity”; that for “QVQLVESGGGLVQAGGSLRLSCAASGFIFVRNAMGLYRQAPGKEREFVAAITRSGGSTYYADSVKGRFTISRDNAKNTVYLQMNSLKPEDTAVYYCAARIHGSWSFDYWGQGTQVTVSS”, “low polyreactivity”.
To “QVQLVESGGGLVQAGGSLRLSCAASGFIFTGNVMGWYRQGPGKERELVAGITYTSGSTYYADSVKGRFTISRDNAKNTVYLQMNSLKPEDTAVYYCAAEVYVPDYFQHKFDVEYEYWGLGTQVTVSS” belongs “low polyreactivity”; to “QVQLVESGGGLVQAGGSLRLSCAASGRTFDGNVMGWYRQAPGKERELVAAITASGGRTYYADSVKGRFTISRDNAKNTVYLQMNSLKPEDTAVYFCAADPTYLRTLRFGSYDYWGQGTQVTVSS”, “high polyreactivity”.
With “QVQLVESGGGLVQAGGSLRLSCAASGRIFYYNAMGWYRPAPGKERELVATITGSGGSTYYADSVKGRFTISRDNAKNTVYLQMNSLKPEDTAVYYCNATRWYYDFYKLDYWGQGTKVTVSS”, the “polyreactivity (PSR sort gate)” value is on record as “low polyreactivity”.
“QVQLVESGGGLVQAGGSLSLSCAASGSIFSYYAMGWYRQAPGKARELVAAITANGGSTSYADSVKGRFTISRDTANNTVYLQMNRLKPEDTAVYYCAKESDYPDFVSTKGDYDYWGQGTQVTVSS”: the “polyreactivity (PSR sort gate)” value is recorded as “low polyreactivity”.
To “QVQLVESGGGLVQAGGSLRLSCAASGRIFWSYPMGWYRQAPGKERELVAAITWRTGRTYYADSVKGRFTISRDNAKNTVYLQMNSLKPEDTAVYYCAAEGYLWGQSYNGLNYDSWGQGTQVTVSS” belongs “low polyreactivity”; to “QVQLVESGGGLVQSGGSLRLSCAASGSTIPSYALGWYRHAPGKERELVASITYSDGTTSYADSVKGRFTISRDNAKNTVYLQMNSLKPEDTAVYYCNAVYYREGMDYWGQGTQVTVSS”, “low polyreactivity”; to “QVQLVESGGGLVQAGGSLRLSSAASGRTLIWYTMGWYRPAPGKERELVAAITSGGSTYYADSVKGRFTISRDNAKNTVYLQMNSLKPEDTAVYYCNARSAFWGWGYGSYDYWGQGTQVTVSS”, “low polyreactivity”.
Take “QVQLVESGGGLVQAGGSLRLSCAASGRIFGVYVMGWYRQAPGKERELVAAISWSGSHTYYADSVKGRFTISRDNAKNTVYLQMNSLKPEDTAVYYCNADSYPDYTGPGLDWYDYWGQGTQVTVSS”: the “polyreactivity (PSR sort gate)” value is “low polyreactivity”.
In the case of “QVQLVESGGGIVQAGGSLRLSCAASGRIFKYNAMGWYRQAPGKERELVAAISWSDGSTYYADSVKGRFTISRDNAKNTVYLQMNSLKPEDTAVYYCAARGYGFPELDYWGQGTQVTVSS”, the “polyreactivity (PSR sort gate)” value is “high polyreactivity”.
To “QVQLVESGGGLVQAGGSLRLICAASGSIFVLNAMGWYRQAPGKERELVAAITSGGSTYYADSVKGRFTISRDNAKNTVYLQMISLKPEDTAVYYCNALDLSPSYKYDYWGQGTQVTVSS” belongs “low polyreactivity”.
